Results published in publication PMC2112059.

Target: Triton X-100-insoluble residue of platelets (platelet cytoskeleton) (human (endogenous in platelets)) (UniProt P60709)
Assay: co-sedimentation

“platelet surface glycoprotein GPIII (from UniProt P05106 27-788) (natural protein)” gave a percent of radioactivity in the supernatant fraction, without m1 greater than 95%.
